Target: T1, EsCas13d, nuclease-dead (Eubacterium siraeum, UniProt B0MS50, R295A;H300A;R849A;H854A)
T1 sequence: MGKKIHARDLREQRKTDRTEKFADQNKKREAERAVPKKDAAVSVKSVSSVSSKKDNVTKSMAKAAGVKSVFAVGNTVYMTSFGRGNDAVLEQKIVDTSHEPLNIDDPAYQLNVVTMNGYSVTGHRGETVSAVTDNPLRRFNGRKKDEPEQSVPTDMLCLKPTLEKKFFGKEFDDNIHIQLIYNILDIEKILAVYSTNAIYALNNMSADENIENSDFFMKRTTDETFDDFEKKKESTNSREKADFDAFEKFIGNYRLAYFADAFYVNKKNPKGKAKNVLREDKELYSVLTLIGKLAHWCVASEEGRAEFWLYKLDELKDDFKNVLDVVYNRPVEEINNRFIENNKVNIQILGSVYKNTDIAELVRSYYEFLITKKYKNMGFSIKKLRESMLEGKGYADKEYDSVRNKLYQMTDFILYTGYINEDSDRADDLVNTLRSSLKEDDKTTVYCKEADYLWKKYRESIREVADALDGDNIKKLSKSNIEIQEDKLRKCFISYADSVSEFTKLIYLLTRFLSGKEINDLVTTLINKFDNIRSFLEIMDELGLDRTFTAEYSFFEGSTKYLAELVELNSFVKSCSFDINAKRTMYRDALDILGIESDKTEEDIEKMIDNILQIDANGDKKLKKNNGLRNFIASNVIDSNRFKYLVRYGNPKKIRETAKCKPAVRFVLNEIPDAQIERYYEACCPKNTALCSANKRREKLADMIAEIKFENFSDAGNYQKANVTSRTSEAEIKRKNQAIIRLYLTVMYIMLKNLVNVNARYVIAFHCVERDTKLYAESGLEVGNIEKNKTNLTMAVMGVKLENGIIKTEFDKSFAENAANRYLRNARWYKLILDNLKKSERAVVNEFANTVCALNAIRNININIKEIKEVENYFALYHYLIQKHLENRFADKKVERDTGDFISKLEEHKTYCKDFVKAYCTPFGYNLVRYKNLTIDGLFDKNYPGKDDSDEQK
Assay: crRNA (strand 1, pre-loaded); Mg2+; 40 mM Tris-HCl pH 7.5, 150 mM NaCl, 6 mM MgCl2, 1 mM DTT, 0.1% Tween-20, 0.2 mg/ml BSA; 25 C; 10 min per concentration, then washed
Details: tags: His6-TwinStrep-SUMO cleaved; N-terminal SNAP kept (SNAP-Surface 488); label: 3' end held by stalled T7 RNA polymerase

B1: target 1 insA 3' of 11,insG 3' of 7 (mixed)
RNA 1: CACCCGUGCAAAAAUGCAGGGGUCUAAAACUGAGCGGAUAACCUCUCUAUGG
RNA 2: GGGAAUGGAUCCACAUCUACGAAUUCGUACCAUAGAGAGGUAUAUCGCGCUCACCGAGAUCGGAAGAGCACACGU
- Kd: 16.7 ± 0.7 nM

B2: target 1 G13U (mixed)
RNA 1: CACCCGUGCAAAAAUGCAGGGGUCUAAAACUGAGCGGAUAACCUCUCUAUGG
RNA 2: GGGAAUGGAUCCACAUCUACGAAUUCGUACCAUAGAGAUGUUAUCCGCUCACCGAGAUCGGAAGAGCACACGU
- Kd: 34 ± 4 nM

B3: target 1 insU 3' of 7,insA 3' of 7 (mixed)
RNA 1: CACCCGUGCAAAAAUGCAGGGGUCUAAAACUGAGCGGAUAACCUCUCUAUGG
RNA 2: GGGAAUGGAUCCACAUCUACGAAUUCGUACCAUAGAGAGGUUAUCUACGCUCACCGAGAUCGGAAGAGCACACGU
- Kd: 7.75 ± 0.3 nM

B4: target 1 insA 3' of 19,insU 3' of 6 (mixed)
RNA 1: CACCCGUGCAAAAAUGCAGGGGUCUAAAACUGAGCGGAUAACCUCUCUAUGG
RNA 2: GGGAAUGGAUCCACAUCUACGAAUUCGUACCAUAAGAGAGGUUAUCCUGCUCACCGAGAUCGGAAGAGCACACGU
- Kd: 22.9 ± 1.6 nM

B5: target 1 insU 3' of 20,insC 3' of 3 (mixed)
RNA 1: CACCCGUGCAAAAAUGCAGGGGUCUAAAACUGAGCGGAUAACCUCUCUAUGG
RNA 2: GGGAAUGGAUCCACAUCUACGAAUUCGUACCAUUAGAGAGGUUAUCCGCUCCACCGAGAUCGGAAGAGCACACGU
- Kd: 12.9 ± 1.3 nM

B6: target 1 A9G,A16G (mixed)
RNA 1: CACCCGUGCAAAAAUGCAGGGGUCUAAAACUGAGCGGAUAACCUCUCUAUGG
RNA 2: GGGAAUGGAUCCACAUCUACGAAUUCGUACCAUAGGGAGGUUGUCCGCUCACCGAGAUCGGAAGAGCACACGU
- Kd: 37 ± 4 nM

B7: target 1 A1U,A20C (mixed)
RNA 1: CACCCGUGCAAAAAUGCAGGGGUCUAAAACUGAGCGGAUAACCUCUCUAUGG
RNA 2: GGGAAUGGAUCCACAUCUACGAAUUCGUACCCUAGAGAGGUUAUCCGCUCUCCGAGAUCGGAAGAGCACACGU
- Kd: 36 ± 8 nM

B8: target 1 A1G,G13U (mixed)
RNA 1: CACCCGUGCAAAAAUGCAGGGGUCUAAAACUGAGCGGAUAACCUCUCUAUGG
RNA 2: GGGAAUGGAUCCACAUCUACGAAUUCGUACCAUAGAGAUGUUAUCCGCUCGCCGAGAUCGGAAGAGCACACGU
- Kd: 41 ± 7 nM

B9: target 1 insG 3' of 19,insC 3' of 9 (mixed)
RNA 1: CACCCGUGCAAAAAUGCAGGGGUCUAAAACUGAGCGGAUAACCUCUCUAUGG
RNA 2: GGGAAUGGAUCCACAUCUACGAAUUCGUACCAUGAGAGAGGUUACUCCGCUCACCGAGAUCGGAAGAGCACACGU
- Kd: 78 ± 10 nM

B10: target 1 insG 3' of 16,insG 3' of 16 (mixed)
RNA 1: CACCCGUGCAAAAAUGCAGGGGUCUAAAACUGAGCGGAUAACCUCUCUAUGG
RNA 2: GGGAAUGGAUCCACAUCUACGAAUUCGUACCAUAGAGGGAGGUUAUCCGCUCACCGAGAUCGGAAGAGCACACGU
- Kd: 22.5 ± 1.4 nM

B11: target 1 insU 3' of 20,insC 3' of 15 (mixed)
RNA 1: CACCCGUGCAAAAAUGCAGGGGUCUAAAACUGAGCGGAUAACCUCUCUAUGG
RNA 2: GGGAAUGGAUCCACAUCUACGAAUUCGUACCAUUAGAGCAGGUUAUCCGCUCACCGAGAUCGGAAGAGCACACGU
- Kd: 28 ± 2.2 nM

B12: target 1 insA 3' of 7,insU 3' of 1 (mixed)
RNA 1: CACCCGUGCAAAAAUGCAGGGGUCUAAAACUGAGCGGAUAACCUCUCUAUGG
RNA 2: GGGAAUGGAUCCACAUCUACGAAUUCGUACCAUAGAGAGGUUAUCACGCUCAUCCGAGAUCGGAAGAGCACACGU
- Kd: 7.7 ± 0.5 nM

B13: target 1 U8A,G13U (mixed)
RNA 1: CACCCGUGCAAAAAUGCAGGGGUCUAAAACUGAGCGGAUAACCUCUCUAUGG
RNA 2: GGGAAUGGAUCCACAUCUACGAAUUCGUACCAUAGAGAUGUUAACCGCUCACCGAGAUCGGAAGAGCACACGU
- Kd: 53 ± 8 nM

B14: target 1 insU 3' of 18,insG 3' of 9 (mixed)
RNA 1: CACCCGUGCAAAAAUGCAGGGGUCUAAAACUGAGCGGAUAACCUCUCUAUGG
RNA 2: GGGAAUGGAUCCACAUCUACGAAUUCGUACCAUAUGAGAGGUUAGUCCGCUCACCGAGAUCGGAAGAGCACACGU
- Kd: 67 ± 10 nM

B15: target 1 insC 3' of 19,insC 3' of 5 (mixed)
RNA 1: CACCCGUGCAAAAAUGCAGGGGUCUAAAACUGAGCGGAUAACCUCUCUAUGG
RNA 2: GGGAAUGGAUCCACAUCUACGAAUUCGUACCAUCAGAGAGGUUAUCCGCCUCACCGAGAUCGGAAGAGCACACGU
- Kd: 75 ± 21 nM

B16: target 1 A1U,G12C (mixed)
RNA 1: CACCCGUGCAAAAAUGCAGGGGUCUAAAACUGAGCGGAUAACCUCUCUAUGG
RNA 2: GGGAAUGGAUCCACAUCUACGAAUUCGUACCAUAGAGAGCUUAUCCGCUCUCCGAGAUCGGAAGAGCACACGU
- Kd: 17.5 ± 1.7 nM

B17: target 1 U11A,G12C (mixed)
RNA 1: CACCCGUGCAAAAAUGCAGGGGUCUAAAACUGAGCGGAUAACCUCUCUAUGG
RNA 2: GGGAAUGGAUCCACAUCUACGAAUUCGUACCAUAGAGAGCAUAUCCGCUCACCGAGAUCGGAAGAGCACACGU
- Kd: 7.59 ± 0.28 nM

B18: target 1 C7U,C21A (mixed)
RNA 1: CACCCGUGCAAAAAUGCAGGGGUCUAAAACUGAGCGGAUAACCUCUCUAUGG
RNA 2: GGGAAUGGAUCCACAUCUACGAAUUCGUACAAUAGAGAGGUUAUUCGCUCACCGAGAUCGGAAGAGCACACGU
- Kd: 24.7 ± 2.5 nM

B19: target 1 insC 3' of 17,insA 3' of 17 (mixed)
RNA 1: CACCCGUGCAAAAAUGCAGGGGUCUAAAACUGAGCGGAUAACCUCUCUAUGG
RNA 2: GGGAAUGGAUCCACAUCUACGAAUUCGUACCAUAGCAAGAGGUUAUCCGCUCACCGAGAUCGGAAGAGCACACGU
- Kd: 20.3 ± 1.5 nM

B20: target 1 A1U,C6U (mixed)
RNA 1: CACCCGUGCAAAAAUGCAGGGGUCUAAAACUGAGCGGAUAACCUCUCUAUGG
RNA 2: GGGAAUGGAUCCACAUCUACGAAUUCGUACCAUAGAGAGGUUAUCUGCUCUCCGAGAUCGGAAGAGCACACGU
- Kd: 11.4 ± 0.9 nM

B21: target 1 insA 3' of 21,insA 3' of 12 (mixed)
RNA 1: CACCCGUGCAAAAAUGCAGGGGUCUAAAACUGAGCGGAUAACCUCUCUAUGG
RNA 2: GGGAAUGGAUCCACAUCUACGAAUUCGUACCAAUAGAGAGGAUUAUCCGCUCACCGAGAUCGGAAGAGCACACGU
- Kd: 48 ± 5 nM

B22: target 1 insG 3' of 9,insC 3' of 3 (mixed)
RNA 1: CACCCGUGCAAAAAUGCAGGGGUCUAAAACUGAGCGGAUAACCUCUCUAUGG
RNA 2: GGGAAUGGAUCCACAUCUACGAAUUCGUACCAUAGAGAGGUUAGUCCGCUCCACCGAGAUCGGAAGAGCACACGU
- Kd: 15.9 ± 0.9 nM

B23: target 1 insA 3' of 6 (mixed)
RNA 1: CACCCGUGCAAAAAUGCAGGGGUCUAAAACUGAGCGGAUAACCUCUCUAUGG
RNA 2: GGGAAUGGAUCCACAUCUACGAAUUCGUACCAUAGAGAGGUUAUCCAGCUCACCGAGAUCGGAAGAGCACACGU
- Kd: 15 ± 1.3 nM

B24: target 1 insA 3' of 22,insG 3' of 22 (mixed)
RNA 1: CACCCGUGCAAAAAUGCAGGGGUCUAAAACUGAGCGGAUAACCUCUCUAUGG
RNA 2: GGGAAUGGAUCCACAUCUACGAAUUCGUACAGCAUAGAGAGGUUAUCCGCUCACCGAGAUCGGAAGAGCACACGU
- Kd: 15.2 ± 0.9 nM

B25: target 1 A1G,G12C (mixed)
RNA 1: CACCCGUGCAAAAAUGCAGGGGUCUAAAACUGAGCGGAUAACCUCUCUAUGG
RNA 2: GGGAAUGGAUCCACAUCUACGAAUUCGUACCAUAGAGAGCUUAUCCGCUCGCCGAGAUCGGAAGAGCACACGU
- Kd: 12.2 ± 0.9 nM

B26: target 1 insA 3' of 8,insG 3' of 7 (mixed)
RNA 1: CACCCGUGCAAAAAUGCAGGGGUCUAAAACUGAGCGGAUAACCUCUCUAUGG
RNA 2: GGGAAUGGAUCCACAUCUACGAAUUCGUACCAUAGAGAGGUUAUACGCGCUCACCGAGAUCGGAAGAGCACACGU
- Kd: 13.3 ± 0.8 nM

B27: target 1 insG 3' of 16,insG 3' of 10 (mixed)
RNA 1: CACCCGUGCAAAAAUGCAGGGGUCUAAAACUGAGCGGAUAACCUCUCUAUGG
RNA 2: GGGAAUGGAUCCACAUCUACGAAUUCGUACCAUAGAGGAGGUUGAUCCGCUCACCGAGAUCGGAAGAGCACACGU
- Kd: 31.2 ± 2.2 nM

B28: target 1 insU 3' of 14,insC 3' of 10 (mixed)
RNA 1: CACCCGUGCAAAAAUGCAGGGGUCUAAAACUGAGCGGAUAACCUCUCUAUGG
RNA 2: GGGAAUGGAUCCACAUCUACGAAUUCGUACCAUAGAGAUGGUUCAUCCGCUCACCGAGAUCGGAAGAGCACACGU
- Kd: 39 ± 10 nM

— paper PMC10786891, “Massively parallel profiling of RNA-targeting CRISPR-Cas13d”
